Laboratory results as given in PMC9978635.

Legend:
Assay in all cases: BioID2 proximity biotinylation, streptavidin purification, TMT quantitative LC-MS
Details in all cases: untreated (-K18) neurons, 3 wk; read off a plot
CELF2 = target: CELF2
[1] = target: NADH:ubiquinone oxidoreductase core subunit S8 (UniProt O00217)
SRPR = target: SRPR
TAGLN3 = target: TAGLN3

Chain of UniProt O00217 (O00217 35-210): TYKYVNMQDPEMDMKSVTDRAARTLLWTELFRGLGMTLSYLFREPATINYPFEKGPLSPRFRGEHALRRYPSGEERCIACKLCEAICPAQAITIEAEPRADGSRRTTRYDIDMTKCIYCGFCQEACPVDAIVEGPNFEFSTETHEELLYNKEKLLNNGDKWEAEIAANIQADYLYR

enrichment (log2 abundance ratio) (CELF2): 1.2
other: log2 abundance ratio (mutant/WT) (log2 abundance ratio) (CELF2): 2.1
enrichment (log2 abundance ratio) [1]: 2.5
other: log2 abundance ratio (mutant/WT) (log2 abundance ratio) [1]: 2
enrichment (log2 abundance ratio) (SRPR): 0.65
other: log2 abundance ratio (mutant/WT) (log2 abundance ratio) (SRPR): 2
enrichment (log2 abundance ratio) (TAGLN3): 2
other: log2 abundance ratio (mutant/WT) (log2 abundance ratio) (TAGLN3): 0.95
Substance: 0N4R tau[WT]-BioID2 (from UniProt P10636-6) P301L
